The values below are quoted from earlier work in US8257684B2, “Methods for identifying and targeting autonomic brain regions” (Neurosigma, Inc., priority 2008, dated 2012).

This series concerns the target T1, OX1R (Homo sapiens, UniProt O43613).
T1 sequence (O43613 1-425): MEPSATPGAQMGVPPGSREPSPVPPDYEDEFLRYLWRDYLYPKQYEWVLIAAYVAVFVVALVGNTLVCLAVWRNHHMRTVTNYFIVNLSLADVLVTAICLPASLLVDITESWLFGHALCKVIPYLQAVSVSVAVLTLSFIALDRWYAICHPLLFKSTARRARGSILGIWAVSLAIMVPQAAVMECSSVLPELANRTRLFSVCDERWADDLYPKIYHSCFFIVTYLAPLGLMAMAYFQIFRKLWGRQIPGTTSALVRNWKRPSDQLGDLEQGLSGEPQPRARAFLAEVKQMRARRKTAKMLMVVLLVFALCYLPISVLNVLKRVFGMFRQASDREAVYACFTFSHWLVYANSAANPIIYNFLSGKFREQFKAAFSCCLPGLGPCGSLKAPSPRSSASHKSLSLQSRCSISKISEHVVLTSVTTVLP
Conditions: ORXa versus ORXb; Lund et al., Journal of Biological Chemistry.

No end group written: not given here.

Regarding “Orexin-A (QPLPDCCRQKTCSCRLYELLHGAGNHAAGILTL; not fully specified (residue 1, C-terminus, bridges); cysteine pairing not given here; UniProt O43612 34-66, looked up) [ORXa, ORX molecule produced in the LHA; agonist of OX1R]”, the “higher affinity of OX1R for ORXa than for ORXb” value is given as “approximately 10 fold”.
